Literature values as cited in publication doi:10.1101/2022.06.23.497301.

Target: Asp96 (UniProt position 109, PLLLLDLALLV)
Conditions: resting (ground, closed) state of bacteriorhodopsin

For “Bacteriorhodopsin (Halobacterium salinarum)”, the pKa is given as “∼12.0”.
